In patent US20230227838A1, “ENHANCED CELL SURVIVAL AGAINST BIOTIC AND ABIOTIC STRESSES THROUGH SALICYLICK ACID-INDUCED NPR1 CONDENSATES” (priority 2020, published 2023):

T1: Myc-CUL3 (Arabidopsis thaliana, UniProt Q9ZVH4 1-732)
T1 construct: also called AtCUL3A (AT1G26830); not shown: N-terminal Myc tag (pEG203)
T1 sequence (looked up): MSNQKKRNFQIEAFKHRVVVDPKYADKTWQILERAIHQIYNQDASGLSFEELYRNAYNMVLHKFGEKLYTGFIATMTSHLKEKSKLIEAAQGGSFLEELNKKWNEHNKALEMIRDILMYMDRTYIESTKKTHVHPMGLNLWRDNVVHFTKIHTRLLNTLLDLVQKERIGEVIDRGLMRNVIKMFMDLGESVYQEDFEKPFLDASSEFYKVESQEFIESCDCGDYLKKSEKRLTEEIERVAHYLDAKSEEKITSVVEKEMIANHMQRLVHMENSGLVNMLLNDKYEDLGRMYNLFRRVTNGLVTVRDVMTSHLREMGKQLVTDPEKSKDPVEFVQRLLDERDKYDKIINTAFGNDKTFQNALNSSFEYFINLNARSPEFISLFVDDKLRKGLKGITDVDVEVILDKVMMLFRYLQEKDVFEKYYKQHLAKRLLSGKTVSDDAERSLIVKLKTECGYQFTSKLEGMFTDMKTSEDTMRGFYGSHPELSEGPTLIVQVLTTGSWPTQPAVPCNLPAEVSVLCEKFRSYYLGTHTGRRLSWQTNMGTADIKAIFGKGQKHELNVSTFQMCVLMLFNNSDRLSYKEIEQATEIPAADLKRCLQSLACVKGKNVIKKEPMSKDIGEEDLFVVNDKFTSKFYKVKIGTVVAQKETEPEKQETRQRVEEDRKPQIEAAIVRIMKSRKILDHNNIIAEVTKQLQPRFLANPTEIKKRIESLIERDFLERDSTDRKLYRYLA


Experiments:
Myc-CUL3 = biological target: T1, Myc-CUL3; assay: co-IP, N. benthamiana, 1 mM SA 5 hr
CUL3 = assay: Co-IP of Myc-CUL3 with HA-fused NPR1 or variants; format: binding, Arabidopsis thaliana; details: for CUL3 pull-down signal in co-IP: 1 mM SA for 5 hr
Procedure: (§1) Plant transformation: For plant transformations, the Agrobacterium tumefaciens strain GV3101 was transformed with plant binary vectors carrying the indicated transgenes. For stable expression in Arabidopsis, a floral dipping method was used. For transient expression in N benthamiana, the Agrobacterium carrying the indicated construct was cultured overnight at 28° C. in Luria-Bertani (LB) broth medium supplemented with appropriate antibiotics: spectinomycin (100 μg/ml), kanamycin (50 μg/ml), gentamycin (50 μg/ml), and rifampicin (25 μg/ml). The obtained culture was re-inoculated at 1:10 into fresh growth media with antibiotics and grown for another 4 hr. Cells were then spun down at 1,600 g for 10 min, and inoculum was prepared by resuspending cells to OD600 nm=1 in double distilled water (DDW) containing 200 μM acetosyringone (Sigma). Unless otherwise stated, for co-IP, co-localization, and BiFC assays in N. benthamiana, the proteins were co-expressed at 1:1 mixture of the relevant Agrobacteria inoculums. In all BiFC assays, the pair of YN/YC fusions was co-expressed together with free mCherry to mark the cytoplasm and nucleus, mCherry-NLS to mark the nucleus only, or mCherry-fused test proteins for co-localization analysis. The inoculum was pressure infiltrated into N. benthamiana leaves at the abaxial side using 1 ml syringe without the needle. Due to low overall levels of NPR1-GFP in transgenic plants, a transient expression assay in Arabidopsis seedlings was used to monitor NPR1-GFP subcellular localization after SA treatment (FIG. 2B). To limit the imaging time in this transient assay (2 hours), a higher baseline SA concentration had to be used. Seeds of WT (Col-0) Arabidopsis were germinated on solid half-strength Murashige and Skoog (1/2 MS) medium and grown for 4 days. Agrobacterium carrying the indicated constructs was grown overnight in LB medium supplemented with appropriate antibiotics. The obtained culture was re-inoculated at 1:10 into virulence induction medium [50.78 mM MES, 0.5% Glucose, 1.734 mM NaH2PO4, 5% of 20X-AB mix (373.9 mM NH4C1, 24.34 mM MgSO4, 40.23 mM KCl, 1.36 mM CaCl2 and 0.18 mM FeSO4·7H2O), 200 μM acetosyringone] supplemented with 25 μg/ml rifampicin and grown for another 24 hr at 28° C. to OD600=0.8 (inoculum). Seedlings were vacuum-infiltrated with the inoculum, and at 48 hpi (hours post inoculation), treatments were performed by submerging the transformed seedlings in water or SA solution at indicated concentrations for 2 hr. Entire cotyledons were sampled for microscopy.
Protein analysis and IP. Recombinant protein analysis was performed using transient expression in N. benthamiana, or stable over-expression in transgenic Arabidopsis, or expression in E. coli. Total protein extraction from plants was performed by homogenizing leaf tissue in the plant extraction buffer [50 mM Tris-HCl (pH 7.5), 150 mM NaCl, 5 mM EDTA, 0.2% Triton X-100, 0.2% Nonidet P-40] supplemented with 1 mM PMSF, 100 μM MG132, and EDTA-free protease inhibitor cocktail (Roche). For ubiquitinated protein analysis in plants, 100 μM of DUB (deubiquitinase) inhibitor (LifeSensors) and 10 mM NEM were added. Next, the lysates were cleared by centrifugation at 14,000 rpm for 15 min followed by filtering through a 0.2 μm filter. […] Pull-downs or IP experiments were done on total protein extracts by incubating protein samples in the lysis buffer overnight with indicated affinity tag or antibody conjugated to agarose or magnetic beads: GFP-trap agarose beads (Chromotek) for GFP fusions; RFP-trap agarose beads (Chromotek) for mCherry fusions; anti-HA magnetic beads (ThermoFisher) for HA tag fusions; anti-DYKDDDDK coupled magnetic agarose (ThermoFisher) for FLAG tag fusions; and glutathione magnetic agarose (ThermoFisher) for GST fusions. Unless otherwise indicated, after pull-down/IP, beads were washed 3 times and proteins were eluted by boiling in the 2×SDS sample buffer. […]

[1] = test system: Psm ES4326/AvrRpt2-mediated cell death; assay: Cell death (conductivity/electrolyte leakage, trypan blue) after Psm ES4326/AvrRpt2 inoculation; format: in vivo, Arabidopsis thaliana; details: transgenic plants expressing the mutant in npr1-2 background; 1 mM SA 24 hr before inoculation
Procedure: Chemical treatment, pathogen infection and cell death assays. […] At 2 days, the bacterial colonies were scored.
Trypan blue staining. Leaves of three-week-old Arabidopsis infected with Psm ES4326/AvrRpt2 were sampled at 1 dpi, boiled in 95% ethanol until completely bleached, followed by boiling for 3 min in a 1:1 mixture of 95% ethanol and staining solution (10 ml lactic acid, 10 ml glycerol, 10 g phenol and 10 mg trypan blue, dissolved in 10 ml DDW). The leaves were then de-stained in 2.5 g/ml chloral hydrate solution and transferred to 70% glycerol for subsequent imaging.

[2] = test system: cytoplasmic condensates (SINCs); assay: Confocal imaging of localization and condensate (body) formation of GFP-fused NPR proteins and variants; format: cell-based, Nicotiana benthamiana; details: no SA treatment / mock
Procedure: as §1
Confocal laser scanning microscopy. Unless otherwise indicated, all imaging data and micrographs for single protein imaging, co-localizations, BiFC and time-lapse were obtained from the transient expression in N. benthamiana using the relevant Agrobacteria strains. All imaging was done with confocal laser scanning fluorescence microscopy using Zeiss 880 airyscan inverted confocal microscope with a 40×/1.2 water correction objective. GFP (eGFP) was excited with a 488 nm argon laser and emission was collected with a 505-530 nm band pass filter. YFP was excited with an argon laser using a 514 nm beam splitter, and emission was detected with a 520-555 nm band pass filter. mCherry was excited with a 561 nm diode laser, and emission was detected with a 575-615 nm band pass filter. When eGFP/YFP were imaged together with mCherry, a spectral GASP detector was used to collect emission from eGFP/YFP. Propidium iodide (PI) was excited with 488 nm argon laser and emission was detected with a 590-620 nm band pass filter. Time-lapse imaging was carried out on live leaf tissue samples from N. benthamiana plants transiently expressing the protein of interest. Image acquisition was done in 5 min intervals for the duration of 2 hr by scanning 30 consecutive focal planes along the Z-axis covering the entire thickness of an epidermal cell. Z-projection was done to each time frame stack before composing a final time-lapse file. […]

Row | Molecule | binding result (Myc-CUL3) | CUL3 pull-down signal in co-IP (CUL3) | protection against cell death induced by Psm ES4326/AvrRpt2 (SA-mediated survival phenotype) [1] | condensate formation in the absence of SA (constitutive) [2] | CUL3 pull-down in co-IP in the absence of SA (CUL3; absence of SA)
1 | rdr1-HA (other, not shown: C-terminal HA tag (pLN462)) MDTTIDGFADSYEISSTSFVATDNTDSSIVYLAAEQVLTGPDVSALQLLSNSFESVFDSPDDFYSDAKLVLSDGREVSFHRCVLSARSSFFKSALAAAKKEKDSNNTAAVKLELKEIAKDYEVGFDSVVTVLAYVYSSRVRPPPKGVSEAADENAAHVAARPAVDFMLEVLYLAFIFKIPELITLYQRHLLDVVDKVVIEDTLVILKLANICGKACMKLLDRCKEIIVKSNVDMVSLEKSLPEELVKEIIDRRKELGLEVPKVKKHVSNVHKALDSDDIELVKLLLKEDHTNLDDACALHFAVAYCNVKTATDLLKLDLADVNHRNPRGYTVLHVAAMRKEPQLILSLLEKGASASEATLEGRTALMIAKQATMAVECNNIPEQCKHSLKGRLCVEILEQEDKREQIPRDVPPSFAVAADELKMTLLDLENRVALAQRLFPTEAQAAMEIAEMKGTCEFIVTSLEPDRLTGTKRTSPGVKIAPFRILEEHQSRLKALSKTVELGKRFFPRCSAVLDQIMNCEDLTQLACGEDDTAEKRLQKKQRYMEIQETLKKAFSEDNLELGNSSLTDSTSSTSKSTGGKRSNRKLSHRRR | binds | – | – | – | –
2 | rdr2: NPR1 with cysteine cluster of RDR2 mutated (C378/385/394A) (protein, A. thaliana npr1 rdr2 protein) MDTTIDGFADSYEISSTSFVATDNTDSSIVYLAAEQVLTGPDVSALQLLSNSFESVFDSPDDFYSDAKLVLSDGREVSFHRCVLSARSSFFKSALAAAKKEKDSNNTAAVKLELKEIAKDYEVGFDSVVTVLAYVYSSRVRPPPKGVSECADENCCHVACRPAVDFMLEVLYLAFIFKIPELITLYQRHLLDVVDKVVIEDTLVILKLANICGKACMKLLDRCKEIIVKSNVDMVSLEKSLPEELVKEIIDRRKELGLEVPKVKKHVSNVHKALDSDDIELVKLLLKEDHTNLDDACALHFAVAYCNVKTATDLLKLDLADVNHRNPRGYTVLHVAAMRKEPQLILSLLEKGASASEATLEGRTALMIAKQATMAVEANNIPEQAKHSLKGRLAVEILEQEDKREQIPRDVPPSFAVAADELKMTLLDLENRVALAQRLFPTEAQAAMEIAEMKGTCEFIVTSLEPDRLTGTKRTSPGVKIAPFRILEEHQSRLKALSKTVELGKRFFPRCSAVLDQIMNCEDLTQLACGEDDTAEKRLQKKQRYMEIQETLKKAFSEDNLELGNSSLTDSTSSTSKSTGGKRSNRKLSHRRR | – | strong interactions with CUL3 | stronger protection | formed cytoplasmic condensates in the absence of SA treatment | –
3 | rdr1: NPR1 with cysteine cluster of RDR1 mutated (C150/155/156/160A) (protein, A. thaliana npr1 rdr1 protein) MDTTIDGFADSYEISSTSFVATDNTDSSIVYLAAEQVLTGPDVSALQLLSNSFESVFDSPDDFYSDAKLVLSDGREVSFHRCVLSARSSFFKSALAAAKKEKDSNNTAAVKLELKEIAKDYEVGFDSVVTVLAYVYSSRVRPPPKGVSEAADENAAHVAARPAVDFMLEVLYLAFIFKIPELITLYQRHLLDVVDKVVIEDTLVILKLANICGKACMKLLDRCKEIIVKSNVDMVSLEKSLPEELVKEIIDRRKELGLEVPKVKKHVSNVHKALDSDDIELVKLLLKEDHTNLDDACALHFAVAYCNVKTATDLLKLDLADVNHRNPRGYTVLHVAAMRKEPQLILSLLEKGASASEATLEGRTALMIAKQATMAVECNNIPEQCKHSLKGRLCVEILEQEDKREQIPRDVPPSFAVAADELKMTLLDLENRVALAQRLFPTEAQAAMEIAEMKGTCEFIVTSLEPDRLTGTKRTSPGVKIAPFRILEEHQSRLKALSKTVELGKRFFPRCSAVLDQIMNCEDLTQLACGEDDTAEKRLQKKQRYMEIQETLKKAFSEDNLELGNSSLTDSTSSTSKSTGGKRSNRKLSHRRR | – | strong interactions with CUL3 | no protection against cell death | formed cytoplasmic condensates in the absence of SA treatment | –
4 | ACTD: NPR1 with the C-terminal domain (CTD) deleted (protein, left off: small tags and cut ends, NPR1 with the C-terminal domain (CTD) deleted) MDTTIDGFADSYEISSTSFVATDNTDSSIVYLAAEQVLTGPDVSALQLLSNSFESVFDSPDDFYSDAKLVLSDGREVSFHRCVLSARSSFFKSALAAAKKEKDSNNTAAVKLELKEIAKDYEVGFDSVVTVLAYVYSSRVRPPPKGVSECADENCCHVACRPAVDFMLEVLYLAFIFKIPELITLYQRHLLDVVDKVVIEDTLVILKLANICGKACMKLLDRCKEIIVKSNVDMVSLEKSLPEELVKEIIDRRKELGLEVPKVKKHVSNVHKALDSDDIELVKLLLKEDHTNLDDACALHFAVAYCNVKTATDLLKLDLADVNHRNPRGYTVLHVAAMRKEPQLILSLLEKGASASEATLEGRT | – | – | – | formed constitutive condensates | significantly enhanced the interaction with CUL3
